Assay results from a protein production outcome set (Wang et al. 2014).

Assay: label from the status in PepcDB records

| Sequence | protein production |
| --- | --- |
| MEKDDSNDGSIIGGNGITAGKDVFLHNIKAPVNIGNTNNTNQNYTTYIISENIEEHTKSLIDFAQFCENKREYEKALDYYEQARVKLEKSESKILLVKVMMGEAVCHHKKGNLSRAKNLIFEAERLDPKNPTVLANIASQLKSENPDEAEIYAKKALEFDKNNFLAKCVIGLLEYDKGNIKDSLRTLKQASTINPNVGYPFNCMARIYSSEKDYGNAIKYGKKAVKIESDNAIFLMELAIDYMNIAFPENEVCISSDFSKMLKMEYLEKALKCLEKAKEMSESQGNNYLNCEIYTYLSRVHLAKGEFNKSIEYCEMIINSGLDTIDIYIILGEAYGECQNYDKVIEYYELLLKRENLTENHLFIVKANLATSYFYKNRLNEAEKLFKELIDENPENINLCIQMSNVLEENGKIEKAFSLLEKIDKFSQKPWDFYYMMGRLYHKKDDYESSVKYLKEAISKNSEAIPPRIYLINLYLECGMHKYAVKQAIELIQLAPTGINFYKLASLYYEIGDYKESAVFSRKALEADYGKVETYRLLCSSLLEANKLSEAKDEFENAFTKYPDDLELKLNYSATLSALEYTEKAIEILTQIISNDPNVVFAYKALARIYYKEASYEIALEYSKKAVFIEPEDEDAHFVMGCSLLNLGKNDEAVEEIQKVIEINPNFDSAWLIDAEKGMEYLGNLITISNHIIERYENGNITISKVGELLIKDTFDLLCHINNVKVAESLSLSDEKIDQLRNSPISKRDVLVDETMLGILAKTGSLDLLRLAFDHVYVIKELEDKIVIGPYLKDHPYRDVKNKLQIIDGGWIESLNPNDMIALATKKIVVENKFSKNDISFIALALDKDFLCLTEDLLLRIQLESINKPTCGIFGFVNYAVSKNIIKQDDAEKIFTKVKSVCIVE | failed |
| MSILMLFGLATLRSATYGENEQLFTRQIVWDIAGFSLMFLVLFIKDRTIRNFSIILYVFSVVLLAALLVKGTPIGGSKRWFRVMGFSFQPSDFAKLSLIVLLPYLLEKRWFWRSFFLTVVPAVLIFLEPDLGTTLSVGLIWLFAVLASNVNKKPLVILLILVLVFLPVFFFFGLKDYQRARILSFLNPEEYGESYSYNVLQSIHAIGAGGLFGAGYMKGKANLMGYVPVSYTDFIVSVIGEEFGFIGIVFLLSLFGLLFFEVSRWILNVKDEYWEILMVSACGLIWFHVFENVSMNLGLLPVTGVPLPFISYGGTSTLVFSILVGLILKGIALARVEKKL | failed |
| MSIENLSSNKSFGGWHKQYSHVSNTLNCAMRFAIYLPPQASTGAKVPVLYWLSGLTCSDENFMQKAGAQRLAAELGIAIVAPDTSPRGEGVADDEGYDLGQGAGFYVNATQAPWNRHYQMYDYVVNELPELIESMFPVSDKRAIAGHSMGGHGALTIALRNPERYQSVSAFSPINNPVNCPWGQKAFTAYLGKDTDTWREYDASLLMRAAKQYVPALVDQGEADNFLAEQLKPEVLEAAASSNNYPLELRSHEGYDHSYYFIASFIEDHLRFHSNYLNA | not failed |
| MSQNVISQPVEAQQSFARAVTESLPGLLLVCAVALVASFVAPKLEAYPLFKTYLSLKDFILAIIFGIIIRNTVGVPAVFQPGLRYSTIMTKTGIVIMGSSYSLAGLVSVGAQALVFIAVFLFGTALVMMWLCRKVGMSTPLAACLAAGMSVCGVSATIAIAPAVKAKNEDMAYSIAVVLMFGLLALIAFPLIGKVFNLTPEQFGAFAGVGIVNSAQVLAAGFGFSQEAGIVAGIYNIGRVVFLPFVVLMLAIMAAAQEAEQGNEVAKINKWQMIRDKFPLFVLGFLAIVCLNTAGVLTKPEVKMAKHFMEWAFLLGFASIGLTTRLSDLRAAGLNGFLFGFGVAGLKAALALAAVLLFMS | failed |
| MNISIFKEKSLKWQLLRRMFLLLICFLIILEIFQYFFLRHYICKDKEMLLESRINNVAHLMTTIDSEASLKKNSGYLIKKSLYFDTTSSVIDKNGNVLLFHIKDKHPTSPPIISASEYKAIMKREGNLEGYTITKNKCGEPQITIWRKIGNLNSPLGLIQLTTPYHSAAQFLYKQIYIYIVACVLILILSILIGGTLIKHTLKPLYRIAHTLNNLTVGDLNKRLSENNNQVEIDHLATAFNNMFSRIEISFNREKELKKKMQQFISDASHELRTPLTSIRGFVEVLLIGSYKDEKKLKLALNTILIESERLTELVNNLLTLTRLDRSTHTEMTKQNMSDIIEEIYPQLKILAKNRQVNLNLYDNNAYFLGNKNQIKQVIFNIVQNSINYTDKETGIITLSLSIEDTLFILKISDNGIGIASKDLPHIFDRFFRSETHRSRESGGYGLGLSIAKSIIQSHGGEISTKSIINQGTSFYIKLKRI | failed |
| FPPGTPLELGKEIAVYRIDGPVFFGAAERFATFLRDEPEVKYLILRLRFVPNMDTTGLVALEDIYHDLERHNCRLILTGLQPEVKQLLERTGLLKTIGLSNCFETTTDAICSISPQIQRCSQP | failed |
| MRVISRNLTAWSAGLIVVAIFLGAWLSHPLHRISGFAVTPAPVGTESLPPKASYSSRFASSDLNDFVHSSAVTALPGGDLMSVWFAGSREGAGDVEIRTSRFDAQAEEWGGEQVLATRESTQTGTGKYIRKLGNPVIALAPDNRLWLFYVSVSVGGWAGSSVNAMVSSDMGASWSAPRQLVTSPFLNISTLVRGAPVFHADGSIGLPVYHEFLGKFAEYLYLSADGEVIDKFRISRGKNSLQPTVVPLDGQRAVALLRYAGETFHRVLASRTEDGGQTWSEPYPLAPSNPNSSLAAVGVPGKGLLVALNDLREGRFKLSLYSTDEQMKVWRPLPDLDKSPDPLGTPFSLEVYKEVIGQGFRASSGALRQPMEAEFLSNLDQRVCAPQGCDFEYEYPYFIRSPDGLYHLVYSWNNTFIKHVSFNEAWLAEQLL | failed |
| MGTAMRSVAWGLAIALWPIAVWAENPEDLQRLLTTRQCERCDLQDSGLVLARLSGARLTGSNLQRANLSGADLSGADLRQTDLRGASLQRANLAGANLTGARLDGVDLREAWLTEAILTPQQLALAHIQGAQGLDVTALPFERYQAWGIEAIQAGRFERAISYFDLALQRNPKSASTYLSRAIAYQGLGRSEQAIADAQAAEQLYKSQQNPEGEKRSQELRTTIVAAQERVASSGSNGGNGGGSAALAVLTGIVQGVLPFLLGFPF | failed |
| VRHTVKIDKDTLLQDYGFHISESLPLTVVAVTAGGSAHGKLFPGDQILQMNNEPAEDLSWERAVDILREAEDSLSITVVRCTS | not failed |
| MSNPLLSIIIPTHNRPHLVTHAVQSALEQTMEDLEVIVVDDASTQPIDLPSHPRLRLIRLLQSHGGAGARNVGLEAALGRWVAFLDDDDRLLPQMAEVSLEALSQTSLPAPVAVISGLEEVNAQGKVLGQRLPPPLRPRGVHFFLEEIEPDQSYNTKQTLVVEREVLQKIGGWDEEMRSRVHSELFLRLNPACSIIGLPIITYQLYNHGGQRVSRNPMLRQESFLRLVHKHKSLFQAHPQMFAKLVYEHANKCYEIGLKREAFYNLFWSMQLDPLQIAPRVVTRVYQSRLKFVIRSYKLKH | failed |
| MRIFGKARHRPSASWRQATDRAFTLIGDGRYEDAGALLTRAADLEPWLSESWFNLALLHKFRHDWEQARAAGLRAVALLDRDIGAPDWWNVGIAATALQDWPLARRAWQAYGLRTPGGATDAGEPLGMDLGSAAVRLSPEGEAEVVWGRRLDPARVEVLSIPLPSSGRRWGEVVLHDGVPHGERTTSAGHSYPVFDEIELWAPSPVPTWVVLLEAATESDRDALEQLAADAGFAAEDWSSSVRLLCRMCSESRMPSDEGDGEHLDPHDHSEPGHPGPLGHRTDGQLWVPERECGVAAPAGLVKGLLDGWVADSPDSRDWRDLEEVC | failed |
| MFVVANIVVGIAKILDAILNLYFWVIIAAAVLSWVNPDPYNPVVRVVRNLTEPVFYRVRKWLPFTYVGGLDLSPLVVLLGIQIINSVLVQSLYQLAVRLY | failed |
| MAKLVSIIVSVYNKEQFLEKCIESLIDLKMDKNNIEAIFVDDCSTDESVNIIKHYEKDYDFIKLIQLPENTGSPSEPRNIGMREAQGKYITLLDADDWLDKEGFPQVIEKVNKDDADLGFGQSFKHKSKNVKYHARFTSYKEASHLKPQDISKIFRAVGPPGKVFKRSLVMDHHIEFEHMKYGEDKLFFFQLFGKVDDITMSTIPMYHVNRYDENKSLVQQTSMLDKANSNLEVLDRTCHMDMSSELKHMALARMVEVDFISRFLRTKTFIKSADKEKFYAVIEKVERKIKEQGIDINTLITNPVFKQIYTLYHHADESVFVNFTKDVVNDQWRYIIQDGIVFRDFVHQYDMIKPTVVDCYPVYEGTQMMGENKYEVIRVMKPDDINIQSVSLVEINNAANEYEVTYKYSDDRIYVPHEEFEKLNKDININFNVNYGESGRSLVYASYPSFNDVFKMKRQNFKVEFVHKKNENKAQQVTNRKSEYFKRITNPMMTLKKIKIYKDVSFKEEVGSLEAGTRVEASDIQYTSKGTPRLVLDDGSIITANKDFITLINTSGLNKYITEVPKKVKVVKACKLYDSRDFKDNTVRKLKKGDVLTIRDIIYTNNSTPRLVTQEGLFLTANKDFIKIIK | failed |
| NLKVKGARDVFEYMKGRIPDETKEHLFVLFLSTKNQILRHETITIGTLTASLIHPREIFKAAIRESAHSIILVHNHPSGDVQPSNADKQVTSILKKAGDLLQIELLDHVIVGNNDWFSFRDHALL | not failed |
| MRAGDGKIRVPADLDAVTATGEEDHSEIDGAAVDRIWRAARHWYRAGMHPAIQLCIRHHGRVVLNRAIGHGWGNAPTDEADAEKIPVTTDTPFCVYSAAKAITATVVHMLVERGHFALDDRVCEYLPSYTSHGKHRTTIRHVLTHSAGVPFPTGPRPDVRRADDHEYAVERLGELRPLYRPGLVHIYHALTWGPLMREIVYAATGKEIREILATEILDPLGFRWTNFGVAERDVPLVAPSHATGRQLPPVIAAVFRKAIGGTVHEIIPYTNTPFFLSTILPSSNTVSTANELSRFMEILRRGGELDGVRVLSPETLRGAVTECRRLRPDFATGLMPLRWGTGFMLGSAKYGPFGRNAPAAFGHLGLVNIAVWADPERALSGGLISSGKPGRDPEAGRYGALLNAITAEIPRASSG | failed |
| MSMSSIPSSSPGGKRYGWVEKIGNKVPHPFLLFIYLIAVLIAATAILSALNVGVQNPTDGSRVVVKNLLSVEGLHWFLPNVIKNFSGFAPLGAILALVLGAGFAERVGLLPALMVKMASHVSARYASYMVLFIAFFSHISSDAALVIMPPLGALMFLAVGRHPVAGLLAAIAGVGCGFTANLLIVTTDVLLSGISTEAAKSIDASLHVSVIDNWYFMATSVIVLTLVGGLITDKLVEPRLGQWQGSRDEKLQTLTPAERFGLRIAGVATLVFVAVIALMVVPENGILRDPVQHTVMPSPFIKGIVPLIIFFFFVVSLAYGIATGKIRRQADLPQLMIEPMKEMAGFIVMVFPLAQFVAMFNWSNMGKFMAVGLTDLLESSGMNGVPAFVGLALLSAFLCMFIASGSAIWSILAPIFVPMFMLLGFHPAFAQILFRIADSSVLPLAPVSPFVPLFLGFLQRYRPDARLGTYYSLVLPYPLIFLAVWLLLLVGWYLVGLPIGPGIYPRLS | failed |
| MSNVTAEQKKEVKGRGFLPSRDGEHFAARIITVNGVINASQAKKIAEAAEKFGNGQLAFTTRLTVELPGVKFEDIEALSEFIASENLITGGTGSRVRPVVACKGTVCVHGLADTQALAAEIHEEFYKNWYDVKLPHKFKIGVGGCPNNCIKPDLNDLGIVGQRVPDYDSELCVGCKKCAVVEVCPVKAAKLTDKGKLEIDSNLCNNCGKCIESCNFDSIEEKESGYKVYIGGKWGKSVRPGTQIDRLFSKEELMTLIEKAILLFREQGNTGERFGITIDRIGADKFIEMLLSDEVLERKEEILEALLHLTGGAVCLEHHHHHH | failed |
| MSQFFYIHPDNPQQRLINQAVEIVRKGGVIVYPTDSGYALGCKIEDKNAMERICRIRQLPDGHNFTLMCRDLSELSTYSFVDNVAFRLMKNNTPGNYTFILKGTKEVPRRLLQEKRKTIGMRVPSNPIAQALLEALGEPMLSTSLMLPGSEFTESDPEEIKDRLEKQVDLIIHGGYLGQKPTTVIDLTDDTPVVVREGVGDVKPFL | not failed |
